Results: paper PMC4624332 (Cell, 2015)

Columns and labels:
[1] = biological target: Tse6_(265-CT) (P. aeruginosa) (UniProt Q9I739); assay: ITC
[2] = biological target: C-terminally octa-histidine-tagged Tse6 (full-length toxin) (P. aeruginosa, UniProt Q9I739 1-430); assay: negative-stain electron microscopy
[3] = biological target: EF-Tu^PA•GDP (P. aeruginosa EF-Tu, GDP-bound), purified (P. aeruginosa, UniProt P09591 1-397); assay: ITC
[4] = biological target: EF-Tu^EC•GDP (E. coli EF-Tu, GDP-bound), purified for ITC (E. coli, UniProt P0CE47 2-393); assay: ITC
Chain of EF-Tu^EC•GDP (E. coli EF-Tu, GDP-bound), purified for ITC (P0CE47 2-393): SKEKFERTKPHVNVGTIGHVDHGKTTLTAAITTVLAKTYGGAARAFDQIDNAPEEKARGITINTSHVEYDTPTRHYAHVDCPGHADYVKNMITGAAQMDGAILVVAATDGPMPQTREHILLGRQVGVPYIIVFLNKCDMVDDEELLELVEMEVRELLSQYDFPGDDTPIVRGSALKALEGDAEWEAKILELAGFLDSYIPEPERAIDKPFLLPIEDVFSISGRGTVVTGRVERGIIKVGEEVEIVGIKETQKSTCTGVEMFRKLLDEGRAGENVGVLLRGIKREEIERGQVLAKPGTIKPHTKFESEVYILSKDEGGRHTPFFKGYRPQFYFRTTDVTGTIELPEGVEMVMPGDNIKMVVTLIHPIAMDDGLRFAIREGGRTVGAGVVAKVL

Chain of EF-Tu^PA•GDP (P. aeruginosa EF-Tu, GDP-bound), purified (P09591 whole entry): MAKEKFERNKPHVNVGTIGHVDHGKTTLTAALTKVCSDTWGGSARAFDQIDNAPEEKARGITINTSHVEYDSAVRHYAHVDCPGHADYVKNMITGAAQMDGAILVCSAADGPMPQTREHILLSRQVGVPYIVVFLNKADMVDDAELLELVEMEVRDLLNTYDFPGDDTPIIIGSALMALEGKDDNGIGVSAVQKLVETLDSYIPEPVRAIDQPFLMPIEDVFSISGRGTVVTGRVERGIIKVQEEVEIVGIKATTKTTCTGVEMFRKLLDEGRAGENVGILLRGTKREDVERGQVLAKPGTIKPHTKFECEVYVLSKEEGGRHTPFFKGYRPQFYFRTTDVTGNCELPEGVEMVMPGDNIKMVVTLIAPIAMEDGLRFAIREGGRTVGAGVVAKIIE

Question: With “EF-Tu with the antibiotic Aurodox (locked into its GTP-bound conformation) (from UniProt P09591 1-397) (natural protein)” as the molecule, how does the fold reduction of the affinity with Aurodox against EF-Tu•GDP [1] read?
Answer: 10 fold

B1: EagT6, recombinant, in the purified Tse6 complex (natural protein)
chain: MTLYRLHEADLEIPDAWQDQSINIFKLPASGPAREASFVISRDASQGDAPFADYVARQLENAEKQLPGFKLHKRWDINIHGHAAVLLDYQWQREGRDLMLRQVFIERRPAVLITTLTTTPADLPHHEPAWKQAMQTLVPRPTPS
Question: Does B1 bind [2]?
Answer: binds

B2: Tse6_(265-CT) (domain or fragment)
chain: QRRAYLNNKFGRSGNLDHDINYRGNRETAAKFFKSKDIDPADAESYMNGLDFNHPVRVETLAPGKNLWQYQSPGAPQGNWYTLSPRVQPTELGINPMGTNRAANTIEPKVLNSYRTTQKVEVLRSTAAPTDDFWSVKGQSYPAKGGAQQLFSNEKGSFGLLPREGS
Question: Which Kd [3] does the source give for B2 here?
Answer: 0.023 µM

Question: What about the Kd [4] of the same molecule?
Answer: 0.081 µM
